Source: the DeepSol protein solubility set

Assay: soluble on expression in E. coli; label from the status in PepcDB or PDB records

Question: With “MISCFNRQCPTGTISYTVRAGDTLYLIAGRFNTTVEAILAANPGIVPERLYIGQVICVPYAQPPQPACPIGTSPYEIKSGDTLSKIAAKFNTTVGDILNANPGIIPEKLYVGQKICIPQPKSENPGCPTMNYYVIQKGDTLPAIAKIFNVTVQQLINANPGINPNALYVGQVICIPVAPSSVRIIVSIAAKTLSLYRDGRLVKSYPVATGKPTTPTPRGTFTIINKQVNPGGPFGTRWMGLSQPHYGIHGTNNPASIGTAASNGCIRMYNEDVNELFNLVSVGTPVTIY” as the sequence, how does the “soluble on expression in E. coli” value read?
Answer: Its value is “soluble”.

Question: For “MSGIGKRELIELYDKLLQFYGKQNWWPVDLEYHKTHGSDPREEVIIGAILTQNTSWKNVEKALENLKREKALNLKAIKEIPTEKLMELIKPAGFYRQKSLYLKEFANKFPSISHLKNVKREDLLKVKGIGKETADAILLYALDRLEFVVDAYTKRLLERLWNIKGSYEEIKRLFEKNLPKDLEIYREFHALIDIHAKEFCKKKPLCEECPLREKCIKSCF”, which “soluble on expression in E. coli” value is on record?
Answer: The value was “soluble”.

Question: Which “soluble on expression in E. coli” value does the source give for “MNKRCEEVLRRYFAEVPFIIEKACELAESMLGEGSHGLSHTIRVLDLALQIGRVEGANLEVLALAAILHDIARPLEDKGRIKDHAQEGARIVRSFLSKLRYPHVDEVAHAIEAHRFSTNIEPRTLEAKILSDADKIDALGAIGIARVFMYAGEKGRSIEDSIKHFEEKILRLKDLMYTETGKRIAQERHKIVEEFVNILKKELIAAALEHHHHHH” here?
Answer: Its value is “soluble”.

Question: For “MSLSTFDYDLIIIGSGPSGRAAAIQAGKLKRRVLVIDRKDRLGGVSVHTGTIPSKTLRETVLNLSGWRERSFYGRSYRVKDRISAEDLKARLHMTLDYEVDVLEHQFNRNHIDTLNGLARFVGPHEIEVATEAGDTTRLTAAKFLIATGTKTYRPDYVPFNGKTVVDGDDFLEMERIPRSLAVIGAGVIGVEYASMFSALDVRVTLIEPRETFLDFIDRTLIQEFTHQIRENGVDLRLGSAVEKIEDTGSHIEISLANGRHIRAEMLLFAAGRMGATSALNLDAVGLETDHRNRITVDRKTYQTSVPHIYATGDVIGHPSLASTSMQQGRVAACHALETPTLPESPWFPYGIYSVPEMSTCGMSEEELQERGIPYEVGVARFRETSRGHIMGLEHGMLKMLLSLKTRRVLGVQIVGEGATELIHIGQAVMNLKGTVDYFVQNTFNYPTLAEAYRTAGLDAFNRMPIPEEFKVKEGHHHHHH”, which “soluble on expression in E. coli” value is on record?
Answer: Its value is “soluble”.

Question: Which “soluble on expression in E. coli” value does the source give for “MGSDKIHHHHHHADSDDENSNFSSGITGMNLSAEVLKHQPMVEKYARENGISEYVNVLLAIIQVESGGTAEDVMQSSESLGLPPNSLDTESSIKQGCKYFASLLSSSKNQGIDDLNVAIQSYNYGGGYVGYVAGKGKKHTFNLAESFAREKSGGKKVTYTNPIAVAKNGGWRWNYGNMFYVELVNQYLTVPQVSGELAQKVMNEALKYQGWKYVYGGSNPNTSFDCSGLTQWCYGKAGISLPRTAQAQYDATQHLPLSQAKAGDLVFFHSTYNAGSYVTHVGIYVGNNQMYHAGDPIGYADLSSSYWQQHLIGAGRVKQ” here?
Answer: The value was “not soluble”.

Question: With “SSTTTGPEAAPKPSAKSIYEQRKRYSTVVMADVSQYHVNHLVTFCLGEEDGVHTVEDASRKLAVMDSQGRVWAQEMLLRVSPSQVTLLDPVSKEELESYPLDAIVRCDAVMPRGRSRSLLLLVCQEPERAQPDVHFFQGLLLGAELIREDIQGALQNYRSGRGERRAAALRATQEELRRGASPAAETPPLQRRPSVRLVINTVEPSAVRGRPQVESIPETEEARKPDQARTTSSADPTSPDLGPRGPELAGLQAERDVDILNHVFDDVESFVSRLQKSAEATRVLEHRERGRRTRRRAAGEGLLTLRAKPPTEAEYTDVLQKIKYAFSLLARLRGNIANPSSPELLHFLFGPLQMIVNTSGGPEFAKSVRRPHLTLEAVTLLRDNVTPGENELWTSLGDSWTCPGVELPPEEGSPYSPEFYNGWEPPATDPQGRPWEDPVEKQLQHEKRRRQQSAPQVAVNGKIQNWKLSPS” as the sequence, how does the “soluble on expression in E. coli” value read?
Answer: Its value is “soluble”.

Question: For “MAHHHHHHMSISVRIRTPKSSTPEQVELNSSGTWGEAAVLLSRKSEVALERLRVLAGFPPKAVDLAADSPLSALKLRANDMLIVQEGEAKVQLGNTGERYVPPAPERAHLTRRRCPADNSCLFHACAYVLRDKSRTEGPQLRQECVQAVLDHPEMFNVNTLGMDPLAYASWLSQKDTWGGAIELEILSFLYKTEMFALDLQSVTVQRFGTGLGYTVRAFLVYTGNHYDCIAMNPVYNSASEREDQTLFSSRDENVLVRAKRFVAEEGQKMKEGKAT”, which “soluble on expression in E. coli” value is on record?
Answer: Its value is “soluble”.

Question: With “MSLSEQHIDPTRLRMDELVVALTDRETELAAAEGRIRELEREVSELRRSLNSPSQEAELERLRLLAGTTAVTGPGVVVTLSETPEAVTAKNRVADEDIWRVVNELYTAGAEAIAVGGVRLTSVSGIRNVGERILVGETMIASPVEIHAIGDPAVLDASLKLRGGVIDLLARWGIKVTVVKSDSLTLPPLKTQPAFRYAKPAESAGSEGHHHHHH” as the sequence, how does the “soluble on expression in E. coli” value read?
Answer: The value was “soluble”.

Question: For “MAHHHHHHMTTLPVLHLKATSLQNVTIAADLSDTTATLYTFLRSTPSAAETELALQPFLESLHAAPSSGRAALMRRPNHHLVQLLESVAVDGVFRCTPHVLPALARHSDRWLHRLGYASMDGEAANLTAVMDSSAHAASGSQRSASPPTAAPFPIMRVRATDMHQYVDPYSAYEADYLGRQEAARSSYVDASASGEARLPTNGSAAESGGLQHRDTTHPHEEASSVSAEVSALTAPGDEPQLSEPAPSASHAVTPAPTAALTSAPAIHPVLHLIANQVLQQQEEGEKTGRENAEERAHPSSSHAVLDEKLHRLMAQLNEAETQLTAAMAEKEATEQVWLPYYSRLKTSRVYVNELKSRLQSAASLYLLQRYERETLQQAHIGVAMESISLQLVLRDVRARLEDEQRSSLTDGHHQATESDRLAQQLSAVLGVPAAASQRNAACDRTN”, which “soluble on expression in E. coli” value is on record?
Answer: Its value is “not soluble”.

Question: Which “soluble on expression in E. coli” value does the source give for “MSLETILLNINISADKTSPKTLRKQLNKVLTSLDVNIQTSRKVELVTSEIVTNIVTHNNDNHTNITLKFGKCKNGYWLDIYDNGAEFDPLSGDIPELNDEFLLFESSRGLYLIRSQCDFIEYEYLNKIKNNRIHCVWYDENINAGPTILIIDDSEIELAIVSNLLSDQFSVLQASNGLDAISILDSHSIDIIISDLHMPTINGVDLYVYLQKHLDKIIPFIFLTSDTNEMTGLREDAYRIGADDVLTKPISQQMLVNAIERALKRNNEGHHHHHH” here?
Answer: The value was “soluble”.

Question: Which “soluble on expression in E. coli” value does the source give for “MGSGILFVFAIGAIPSQAQDIGSTDRLNVENWQEWETVGEAQLTWFVFDIYRSRLKAPNGQYLVSTDVSPHPFALEINYQRDISKQQLLEVTDEQWQKLGFPKSNRQQWITQLSFIFPSIKNGDELTYVTDGDKGQIIYRQAGTKTQKMVGEITDERMNDAFLSIWLSPKTEFPKLRKQLIGQVRP” here?
Answer: The value was “not soluble”.

Question: With “MGSDKIHHHHHHMLLSMQGICKSFNGIPALRAASLEVGEAEVMALVGQNGAGKSTLIKILTGAYRRDEGAVVFAGEGVSFSMPAESQARGIATIYQEINLAPQRSVAENIYLSREPRRFGLIDRRAMRDGAAAVLRAFNLEIDVDQPVAGFSAATRQMVAIARAVTQKARLVIMDEPTSSLDEREVGILFDTIRTLKRGGVSVVFIGHRLEELYRICDRVTIMRDGKTVATAAMADMPKLALVRHMLGKELAAFEAIAKDADEGAQRPVRLSVRNAGAGVRVRDVSLTVREGEISGLAGLLGSGRTETANLIFGADRLQRGEIRYNGEARAYRQPADAIADGIGLVAEDRKVDGIIPDMSIRENMTLALLPKLARAGIVDRARQDEIVERYITALAIKCTSPDQPIKELSGGNQQKVLLGRWLCTDPKLLIVDEPTRGIDIGAKSEILRLLRRLADEGLGVLMISSELEELLAAADRVTVLSDGTSVAVLPRKELSEAALFAAMAHQVE” as the sequence, how does the “soluble on expression in E. coli” value read?
Answer: The value was “not soluble”.

Question: With “MGSDKIHHHHHHMAEIEQALASPQLIAEKVLKLPSKVLELDRKLADPQFDTKDLLALIEQDPLLSVEVLKLCNSPAFKRGEREVTSLQQALVQLGREQLRRFVTSSLVREMLDIKPIYFRRFGAEIWRHSMQVAFLASELSEEDRDTAFLLGLLHDVGKLAIFKMLLDAFVQAEPGEQPNSWLFRQVMTAKSLTLSALLAKHWQLPSTFETELDKLAHVHTRPNEGIAAVVWRANVISEISMLQQASKLPADMLSNLLALVGLEQAQFDELHEKLQQF” as the sequence, how does the “soluble on expression in E. coli” value read?
Answer: The value was “not soluble”.

Question: For “MLKPETIHISGPAGILETIHIPSEQVPARGVAVINHPNPLQGGTNTNKVIQTAAKALSKLGFHCYLPNLRGVGGSGGTHDYGRGETQDCLAVIDYARAQHPEAPEFALSGFSFGGYVATFAAQARTPDLLLLIGAAVCHYTDRPEPSAVPNVAKTLMIHGAEDEVVEIGKALKWAEPQDLPVITIAGSTHFFHGKLIVLRDTILRFAPVCLNG”, which “soluble on expression in E. coli” value is on record?
Answer: The value was “not soluble”.

Question: Which “soluble on expression in E. coli” value does the source give for “MAAALPRTLGELQLYRILQKANLLSYFDAFIQQGGDDVQQLCEAGEEEFLEIMALVGMASKPLHVRRLQKALRDWVTNPGLFNQPLTSLPVSSIPIYKLPEGSPTWLGISCSSYERSSNAREPHLKIPKCAATTCVQSLGQGKSDVVGSLALQSVGESRLWQGHHATESEHSLSPADLGSPASPKESSEALDAAAALSVAECVERMAPTLPKSDLNEVKELLKTNKKLAKMIGHIFEMNDDDPHKEEEIRKYSAIYGRFDSKRKDGKHLTLHELTVNEAAAQLCVKDNALLTRRDELFALARQISREVTYKYTYRTTKSKCGERDELSPKRIKVEDGFPDFQDSVQTLFQQARAKSEELAALSSQQPEKVMAKQMEFLCNQAGYERLQHAERRLSAGLYRQSSEEHSPNGLTSDNSDGQGERPLNLRMPNLQNRQPHHFVVDGELSRLYPSEAKSHSSESLGILKDYPHSAFTLEKKVIKTEPEDSR” here?
Answer: Its value is “soluble”.

Question: For “MSLDSHRISVLHVDDEPGLGETTAEFLRQQSDGFSVETATSTSEGLKRLTEAPFDCIVSDYDMADMDGIEFLRAVRAEYPDLPFVLFTGKGSEEVASEAVSAGVSDYLQKRGGTERYTLLANRITNLVTQHRAEERLRTRVQQQEAVADLGQYALTGCGLDALFERAVESVAAGLNTEYSKVLEYRPADNKFLLRAGVGWQSGLVGEAAVGAGEESQAGYTLQTEEPVVVEDLRTESRFSGPSLLLDHGVVSGISVIIGTTTEPWGVLGAHTSERRPFTKDDITFVRGVANTLTNAIEREQLEGTLRQAEQRYKTLLENFPGGGVFLFDDDLRYLIARGEGLSAFGLTPADVEGKTLAEVFPPAVVERQKPKYRAALDGETQVWTQEYEGKQYRLSTLPVTGSSDKQLGMVVSMDITGLSASEGHHHHHH”, which “soluble on expression in E. coli” value is on record?
Answer: Its value is “soluble”.

Question: Which “soluble on expression in E. coli” value does the source give for “MAHHHHHHMSFCDFVVVTNNSVEIFKISFDNLIITPIKKHFIKSKHCWYDEKSSYICLLSANKSNVILPYLLSNNNVIKLSKIELNILKNDNINKNDIEIITLYNETYCIHKDFKNGRISFRCLSSTIYFDYVLDLFYNGVIETFSLDNLFGVFNHTNQYVYLFDIKYNKKKTTIHSFDDNNNHTINISYLTTPKQFKTQINFNHMAFEPYNLLIDNHYGNVYKVKVDYDVLMLQICQHFSNLVRT” here?
Answer: Its value is “soluble”.

Question: With “MASKEAHVSLARGEQSVKRIKEFDPGKDSFSVLLLGIDAREKNGETVDQARSDANVLVTFNRKEKTAKMLSIPRDAYVNIPGHGYDKFTHAHAYGGVDLTVKTVEEMLDIPVDYVVESNFTAFEDVVNELNGVKVTVKSDKVIQQIKKDTKGKVVLQKGTHTLDGEEALAYVRTRKADSDLLRGQRQMEVLSAIIDKSKSLSSIPAYDDIVDTMGQNLKMNLSLKDAIGLFPFITSLKSVESIQLTGYDYEPAGVYYFKLNQQKLQEVKKELQNDLGVLEHHHHHH” as the sequence, how does the “soluble on expression in E. coli” value read?
Answer: The value was “soluble”.

Question: Which “soluble on expression in E. coli” value does the source give for “MSKSEETLSSIMEASYRLFARHGITKTTYSMIAEEVGIAKPSIYYYFKSKDALIECIFTELCAAMQFSSFFHTEEFTKENFIEKCIEIGFKIIDEQQNDPYFNRVLQEYLLLSSRNDMYKDRLLTVQTEYLQGFESLLTKANELQLIENKNLVSKAHMLALVLDNVGNFMMLHVDIDYRQIWMEAVNIIFERRD” here?
Answer: Its value is “not soluble”.
